Tests used:
Experiment in all cases: Kinase Profiling Assay
Type in all cases: biochemical
Details in all cases: 100 μM peptide
[1] = molecular target: T1, Ret(h) (Homo sapiens, UniProt P07949)
T1 construct: purchased Millipore (IC50 Profiler Express service)
Summary of the method: (§1)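 Duplicate activity readings per kinase; peptide inhibitors of MK2 profiled against 266 human kinases for selectivity.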

[2] = molecular target: T2, PKCϵ(h) (Homo sapiens, UniProt Q02156)
T2 sequence (Q02156 1-737): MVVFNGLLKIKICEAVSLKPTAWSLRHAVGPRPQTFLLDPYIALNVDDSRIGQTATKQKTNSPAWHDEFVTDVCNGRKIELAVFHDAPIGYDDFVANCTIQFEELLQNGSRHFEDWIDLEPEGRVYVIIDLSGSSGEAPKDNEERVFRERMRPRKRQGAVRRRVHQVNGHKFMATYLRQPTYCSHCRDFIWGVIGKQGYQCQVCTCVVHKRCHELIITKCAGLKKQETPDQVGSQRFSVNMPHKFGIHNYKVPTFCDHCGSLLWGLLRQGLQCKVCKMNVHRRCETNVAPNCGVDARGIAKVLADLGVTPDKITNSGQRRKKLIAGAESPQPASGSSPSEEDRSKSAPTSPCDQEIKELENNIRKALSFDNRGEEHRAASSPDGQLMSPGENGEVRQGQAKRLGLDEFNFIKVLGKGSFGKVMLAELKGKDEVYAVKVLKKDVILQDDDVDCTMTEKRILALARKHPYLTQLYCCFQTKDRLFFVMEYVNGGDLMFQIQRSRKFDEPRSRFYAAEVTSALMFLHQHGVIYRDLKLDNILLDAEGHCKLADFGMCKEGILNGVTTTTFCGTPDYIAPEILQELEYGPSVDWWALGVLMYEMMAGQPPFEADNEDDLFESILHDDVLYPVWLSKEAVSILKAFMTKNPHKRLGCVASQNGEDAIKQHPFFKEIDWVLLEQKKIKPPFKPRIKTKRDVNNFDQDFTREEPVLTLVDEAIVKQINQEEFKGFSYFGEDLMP
Summary of the method: as §1

[3] = molecular target: T3, ULK2(h) (Homo sapiens, UniProt Q8IYT8)
T3 sequence (Q8IYT8 1-1036): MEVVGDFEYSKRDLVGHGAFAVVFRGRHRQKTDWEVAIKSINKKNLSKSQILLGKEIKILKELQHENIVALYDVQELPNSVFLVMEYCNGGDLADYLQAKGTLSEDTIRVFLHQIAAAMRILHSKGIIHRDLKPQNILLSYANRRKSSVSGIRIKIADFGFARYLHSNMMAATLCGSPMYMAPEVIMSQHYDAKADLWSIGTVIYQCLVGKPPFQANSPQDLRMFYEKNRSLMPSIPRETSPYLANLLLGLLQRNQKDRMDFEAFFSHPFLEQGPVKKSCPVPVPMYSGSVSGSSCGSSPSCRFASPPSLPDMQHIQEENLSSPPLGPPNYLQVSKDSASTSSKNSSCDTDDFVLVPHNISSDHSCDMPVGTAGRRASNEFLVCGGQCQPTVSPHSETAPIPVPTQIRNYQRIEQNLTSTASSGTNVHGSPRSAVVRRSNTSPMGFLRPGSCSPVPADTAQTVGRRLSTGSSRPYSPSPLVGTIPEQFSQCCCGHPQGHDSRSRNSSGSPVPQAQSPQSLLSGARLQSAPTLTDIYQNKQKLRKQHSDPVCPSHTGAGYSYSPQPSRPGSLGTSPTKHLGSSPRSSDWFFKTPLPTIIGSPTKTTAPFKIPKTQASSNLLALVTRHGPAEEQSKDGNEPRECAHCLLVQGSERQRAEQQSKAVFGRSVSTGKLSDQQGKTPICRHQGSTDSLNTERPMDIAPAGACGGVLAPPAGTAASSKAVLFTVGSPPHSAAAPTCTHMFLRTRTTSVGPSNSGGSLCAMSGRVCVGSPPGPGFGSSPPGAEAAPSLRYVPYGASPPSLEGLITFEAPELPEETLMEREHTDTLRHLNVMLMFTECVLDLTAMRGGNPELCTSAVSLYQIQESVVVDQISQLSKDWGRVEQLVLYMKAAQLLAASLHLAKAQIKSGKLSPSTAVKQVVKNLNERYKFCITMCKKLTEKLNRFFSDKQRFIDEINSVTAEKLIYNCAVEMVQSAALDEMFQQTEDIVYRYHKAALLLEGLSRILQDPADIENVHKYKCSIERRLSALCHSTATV
Summary of the method: as §1

[4] = molecular target: T4, TAO1(h) (Homo sapiens, UniProt Q7L7X3)
T4 sequence (Q7L7X3 1-1001): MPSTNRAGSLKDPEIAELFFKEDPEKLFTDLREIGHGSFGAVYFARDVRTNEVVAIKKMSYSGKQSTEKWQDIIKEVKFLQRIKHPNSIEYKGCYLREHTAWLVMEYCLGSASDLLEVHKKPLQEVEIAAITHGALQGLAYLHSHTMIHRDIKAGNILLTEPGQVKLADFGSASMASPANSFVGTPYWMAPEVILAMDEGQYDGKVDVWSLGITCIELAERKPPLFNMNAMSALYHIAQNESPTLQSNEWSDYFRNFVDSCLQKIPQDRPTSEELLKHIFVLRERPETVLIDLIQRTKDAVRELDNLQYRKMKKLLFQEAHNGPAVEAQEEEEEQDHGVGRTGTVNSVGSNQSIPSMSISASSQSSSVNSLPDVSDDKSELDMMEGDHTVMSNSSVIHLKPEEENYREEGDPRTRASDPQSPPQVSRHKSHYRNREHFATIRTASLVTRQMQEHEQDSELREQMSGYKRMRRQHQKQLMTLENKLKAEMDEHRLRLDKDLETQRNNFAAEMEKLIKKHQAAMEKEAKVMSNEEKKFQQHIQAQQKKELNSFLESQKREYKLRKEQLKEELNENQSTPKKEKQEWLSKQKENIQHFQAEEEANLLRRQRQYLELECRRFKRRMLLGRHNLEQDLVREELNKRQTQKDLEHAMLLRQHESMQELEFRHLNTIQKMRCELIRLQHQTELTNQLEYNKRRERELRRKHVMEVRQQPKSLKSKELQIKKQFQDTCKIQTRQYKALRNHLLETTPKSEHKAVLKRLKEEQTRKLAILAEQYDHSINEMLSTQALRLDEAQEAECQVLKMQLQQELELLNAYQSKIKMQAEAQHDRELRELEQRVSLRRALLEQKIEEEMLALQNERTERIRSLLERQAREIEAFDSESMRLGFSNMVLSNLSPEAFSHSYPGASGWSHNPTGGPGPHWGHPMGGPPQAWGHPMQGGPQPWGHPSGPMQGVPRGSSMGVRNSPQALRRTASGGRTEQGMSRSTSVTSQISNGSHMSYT
Summary of the method: as §1

[5] = molecular target: MST3(h) (Homo sapiens, UniProt Q9Y6E0)
Summary of the method: as §1

Sequence of MST3(h) (Q9Y6E0 whole entry): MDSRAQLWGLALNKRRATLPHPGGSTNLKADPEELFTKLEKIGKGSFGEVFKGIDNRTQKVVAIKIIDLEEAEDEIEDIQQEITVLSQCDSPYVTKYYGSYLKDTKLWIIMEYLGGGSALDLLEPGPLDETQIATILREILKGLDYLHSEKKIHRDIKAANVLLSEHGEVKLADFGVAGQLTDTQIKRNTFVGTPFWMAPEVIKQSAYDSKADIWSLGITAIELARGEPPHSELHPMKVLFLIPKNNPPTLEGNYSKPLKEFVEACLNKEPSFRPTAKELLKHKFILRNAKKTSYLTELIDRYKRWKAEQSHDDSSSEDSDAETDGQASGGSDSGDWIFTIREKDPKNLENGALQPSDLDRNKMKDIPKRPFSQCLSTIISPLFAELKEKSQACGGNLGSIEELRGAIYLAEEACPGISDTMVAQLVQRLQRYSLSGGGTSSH

Sequence | Ret(h) % activity [1] | PKCϵ(h) % activity [2] | ULK2(h) % activity [3] | TAO1(h) % activity [4] | MST3(h) % activity [5]
KAFAKLAARLYRKALARQLGVAA [MMI-0400] | 145% | 59% | 131% | 73% | 36%
YARAAARQARAKALNRQLGVA (Mammalian) [MMI-0200] | 96% | 98% | 132% | – | 95%
FAKLAARLYRKALARQLGVAA [MMI-0300] | 140% | 79% | 122% | 82% | 45%
HRRIKAWLKKIKALARQLGVAA (Mammalian) [MMI-0500] | 174% | 23% | 124% | 24% | 4%

Source: patent publication US10562947B2, “Compositions and methods for preventing or treating diseases, conditions or processes characterized by aberrant fibroblast proliferation and extracellular matrix deposition” (MOERAE MATRIX, INC., priority 2011, dated 2020)
